Results reported in patent publication US20230073274A1 (NOVELMED THERAPEUTICS, published 2023).
Numbering of substitutions follows the chain as printed. Read-outs that look alike come from different tables or passages of the source. One block for each binder: values may come before it.

Tests used:
human properdin [1] = target: T1, human properdin (human, UniProt P27918 28-469); experiment: cell-based or functional assay
human properdin [2] = target: T1, human properdin; experiment: cell-based or functional assay; remark: listed apart in the source
human properdin [3] = target: T1, human properdin; experiment: cell-based or functional assay; remark: listed apart in the source
human properdin [4] = target: T1, human properdin; experiment: ELISA, human properdin coated on plate
Procedure: (§1) Polystyrene microtiter plates were coated with human (2.0 μg/50 μl per well) properdin in phosphate buffered saline (PBS) overnight at 4° C. After aspirating the properdin solution, the wells were blocked with PBS containing 1% bovine serum albumin (BSA) (Sigma-Aldrich, St. Louis, Mo.) for 2 hours at room temperature. Wells without peptide or properdin coating served as background controls. Aliquots of the test antibody in blocking solution were added to the properdin coated wells and allowed to incubate for 1 hour to allow binding to occur. Following a 1 hour incubation at room temperature, the plate was rinsed with PBS five times and incubated with 1:2000 diluted anti-properdin polyclonal antibody.

human properdin [5] = target: T1, human properdin; experiment: cell-based or functional assay; remark: listed apart in the source
human properdin [6] = target: T1, human properdin; experiment: ELISA, human properdin coated on the plate, OD 450 nm
Procedure: as §1

human properdin [7] = target: T1, human properdin; experiment: cell-based or functional assay; remark: listed apart in the source
human properdin [8] = target: T1, human properdin; experiment: ELISA, properdin coated on the plate, OD 450 nm
human properdin [9] = target: T1, human properdin; experiment: cell-based or functional assay; remark: listed apart in the source
human properdin [10] = target: T1, human properdin; experiment: properdin binding assay (method of Example 8, not restated)
human properdin [11] = target: T1, human properdin; experiment: ELISA, properdin coated on the plate, OD 450 nm; remark: listed apart in the source
human properdin [12] = target: T1, human properdin; experiment: cell-based or functional assay; remark: listed apart in the source
human properdin [13] = target: T1, human properdin; experiment: cell-based or functional assay; remark: listed apart in the source

T1 sequence (P27918 28-469 limits assumed): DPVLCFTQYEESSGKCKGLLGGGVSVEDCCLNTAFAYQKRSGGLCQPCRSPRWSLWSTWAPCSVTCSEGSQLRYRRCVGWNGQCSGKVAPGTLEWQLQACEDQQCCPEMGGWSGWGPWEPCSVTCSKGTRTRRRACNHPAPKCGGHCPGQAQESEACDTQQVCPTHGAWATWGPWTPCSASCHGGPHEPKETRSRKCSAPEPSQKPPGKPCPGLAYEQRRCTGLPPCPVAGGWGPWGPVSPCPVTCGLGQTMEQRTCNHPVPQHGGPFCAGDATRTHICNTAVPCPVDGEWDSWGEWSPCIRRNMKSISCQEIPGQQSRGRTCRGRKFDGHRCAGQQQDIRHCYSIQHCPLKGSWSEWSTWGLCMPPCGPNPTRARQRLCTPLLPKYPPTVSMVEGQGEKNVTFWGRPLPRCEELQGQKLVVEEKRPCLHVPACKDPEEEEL

IC50 (read off the curve): C3b deposition (sheet title: LPS C3b 10% NHS) (human properdin [1]): ~0.6 µg/mL
B1: NMT30-100 (antibody, V domains shown)
VH: EVTLKESGPTLVKPTQTLTLTCTFSGFSLSTSGMGVGWIRQPPGKALEWLAHIWWDDVKSYNPALKSRLTITKDTSKNQVVLTITNVDPVDTATYYCARIGDGYYSFDYWGQGTTLTVSS
VL: DIQMTQSPSSLSASVGDRVTITCRASQDVSDAVAWFQQKPGKAPKLLIYSPSYRYTGVPSRFSGSGSGTDFTFTISSLQPEDFATYYCQQHYSTPWTFGQGTKLEIK

IC50 (read off the curve): C3b deposition (sheet title: LPS C3b 10% NHS) (human properdin [1]): ~0.5 µg/mL
B2: NMT31-100 (antibody, V domains shown)
VH: B1 VH with I84M, V87M, L116V
VL: B1 VL with F83L

IC50 (read off the curve): C3b deposition (sheet title: LPS C3b 10% NHS) (human properdin [1]): ~0.5 µg/mL
B3: NMT31-101 (antibody, V domains shown)
VH: B1 VH with I84M, V87M, L116V
VL: B1 VL with F83L

IC50 (read off the curve): C3b deposition (sheet title: LPS C3b 10% NHS) (human properdin [1]): ~0.6 µg/mL
B4: NMT30-101 (antibody, V domains shown)
VH: B1 VH
VL: B1 VL

MAC (µg/Ml); inhibition of MAC formation (human properdin [2]): 9 µg/mL
Properdin (µg/mL); inhibition of properdin deposition (human properdin [2]): 3 µg/mL
IC50 (read off the curve): properdin deposition (AP activation on LPS, 10% normal human serum) (human properdin [3]): ~0.9 µg/mL
Binding Affinity (human properdin [4]): 289 pM
IC50 (read off the curve): C3b deposition (AP activation on LPS, normal human serum) (human properdin [5]): ~0.5 µg/mL
EC50 (read off the curve) (human properdin [6]): ~0.3 nM
B5: NMT18 (antibody, V domains shown)
VH: EVQLVQSGAEVKKPGASVKVSCKASGYIFTNYPIHWVRQAPGQGLEWMGFIDPGGGYDEPDERFRDRVTMTADTSTSTAYMELSSLRSEDTAVYYCARRGGGYYLDYWGQGTTVTVSS
VL: DIQMTQSPSSLSASVGDRVTITCRASQDISFFLNWYQQKPGKAPKLLIYYTSRYHSGVPSRFSGSGSGTDFTLTISSLQPEDFATYYCQHGQTLPWTFGQGTKLEIK

IC50 (read off the curve): C3b deposition (sheet title: LPS C3b 10% NHS) (human properdin [7]): ~0.5 µg/mL
EC50 (read off the curve) (human properdin [8]): ~0.6 nM
C3b (µg/mL); inhibition of AP mediated C3b formation and deposition (human properdin [9]): 1 µg/mL
MAC (µg/mL); inhibition of MAC formation (human properdin [9]): 3 µg/mL
Affinity (human properdin [10]): 590 pM
B6: NMT18-101 (antibody, V domains shown)
VH: B5 VH
VL: B5 VL

binding result (human properdin [11]): no binding (tested: about 13 nM)
B7: NMT26 (antibody, V domains shown)
VH: EVQLVESGGGLVQPGRSLRLSCAASGYIFTNYPIHWVRQAPGKGLEWVSFIDPGGGHIDYADSVEGRFTISRDNAKNSLYLQMNSLRAEDTAVYYCAKRGGGYYLDYWGQGTLVTVSS
VL: B5 VL with F83V, Q92S, W96Y, L104V

IC50 (read off the curve): C3b deposition (sheet title: LPS C3b 10% NHS) (human properdin [7]): ~0.5 µg/mL
EC50 (read off the curve) (human properdin [8]): 0.3 to 0.4 nM
C3b (µg/mL); inhibition of AP mediated C3b formation and deposition (human properdin [9]): 1 µg/mL
MAC (µg/mL); inhibition of MAC formation (human properdin [9]): 1 µg/mL
Affinity (human properdin [10]): 322 pM
B8: NMT18-100 (antibody, V domains shown)
VH: B5 VH
VL: B5 VL

binding result (human properdin [11]): no binding (tested: about 13 nM)
B9: NMT24 (antibody, V domains shown)
VH: EVQLVQSGAEVKKPGASVKVSCKASGYIFTNYPIHWVRQAPGKGLEWMGFIDPGGGHDEYADSVKGRVTMTRDTSTSTVYMELSSLRSEDTAVYYCARRGGGYYLDYWGQGTLVTVSS
VL: B5 VL with Y50G, T51A, R53S, W96R, L104V

EC50 (read off the curve) (human properdin [11]): ~0.2 nM
B10: NMT23 (antibody, V domains shown)
VH: B9 VH
VL: B5 VL with Q92S, L104V

IC50 (read off the curve): C3b deposition (sheet title: LPS C3b 10% NHS) (human properdin [7]): ~0.4 µg/mL
EC50 (read off the curve) (human properdin [8]): ~0.3 nM
C3b (µg/mL); inhibition of AP mediated C3b formation and deposition (human properdin [9]): 1 µg/mL
MAC (µg/mL); inhibition of MAC formation (human properdin [9]): 1 µg/mL
Affinity (human properdin [10]): 263 pM
B11: NMT17-100 (antibody, V domains shown)
VH: B5 VH
VL: B5 VL with Q92S

EC50 (read off the curve) (human properdin [11]): ~0.06 nM
IC50 (read off the curve): C3b deposition (AP C3 convertase formation assay) (human properdin [12]): ~0.3 µg/mL
IC50 (read off the curve): properdin deposition (AP C3 convertase formation assay) (human properdin [12]): ~0.3 µg/mL
B12: NMT28 (antibody, V domains shown)
VH: B5 VH with T113L
VL: B5 VL with L104V

Binding Affinity (human properdin [4]): 486 pM
IC50 (read off the curve): properdin deposition (AP activation on LPS, 10% normal human serum) (human properdin [13]): ~10 µg/mL
EC50 (read off the curve) (human properdin [6]): ~0.5 nM
B13: NMT19 (antibody, V domains shown)
VH: B5 VH with Y27H, Y57H
VL: B5 VL

IC50 (read off the curve): C3b deposition (sheet title: LPS C3b 10% NHS) (human properdin [7]): ~0.5 µg/mL
EC50 (read off the curve) (human properdin [8]): ~0.5 nM
C3b (µg/mL); inhibition of AP mediated C3b formation and deposition (human properdin [9]): 1 µg/mL
MAC (µg/mL); inhibition of MAC formation (human properdin [9]): 1 µg/mL
Affinity (human properdin [10]): 499 pM
B14: NMT17-101 (antibody, V domains shown)
VH: B5 VH
VL: B5 VL with Q92S

MAC (µg/Ml); inhibition of MAC formation (human properdin [2]): 3 µg/mL
Properdin (µg/mL); inhibition of properdin deposition (human properdin [2]): 4 µg/mL
IC50 (read off the curve): properdin deposition (AP activation on LPS, 10% normal human serum) (human properdin [3]): ~1 µg/mL
Binding Affinity (human properdin [4]): 315 pM
EC50 (read off the curve) (human properdin [6]): 0.3 to 0.4 nM
B15: NMT16 (antibody, V domains shown)
VH: B5 VH
VL: B5 VL with Q92N

MAC (µg/Ml); inhibition of MAC formation (human properdin [2]): 8 µg/mL
Properdin (µg/mL); inhibition of properdin deposition (human properdin [2]): 8 µg/mL
Binding Affinity (human properdin [4]): 353 pM
IC50 (read off the curve): C3b deposition (AP activation on LPS, normal human serum) (human properdin [5]): ~0.5 µg/mL
IC50 (read off the curve): properdin deposition (AP activation on LPS, 10% normal human serum) (human properdin [13]): ~1 µg/mL
EC50 (read off the curve) (human properdin [6]): 0.3 to 0.4 nM
B16: NMT21 (antibody, V domains shown)
VH: B5 VH with P60Y, D61A, E62Q, R63K, R65Q, D66G, M70L, V114L
VL: B5 VL

MAC (µg/Ml); inhibition of MAC formation (human properdin [2]): 5 µg/mL
Properdin (µg/mL); inhibition of properdin deposition (human properdin [2]): 4 µg/mL
IC50 (read off the curve): properdin deposition (AP activation on LPS, 10% normal human serum) (human properdin [3]): ~0.9 µg/mL
Binding Affinity (human properdin [4]): 283 pM
IC50 (read off the curve): C3b deposition (AP activation on LPS, normal human serum) (human properdin [5]): ~0.7 µg/mL
EC50 (read off the curve) (human properdin [6]): ~0.3 nM
B17: NMT17 (antibody, V domains shown)
VH: B5 VH
VL: B5 VL with Q92S

binding result (human properdin [11]): binds
B18: NMT27 (antibody, V domains shown)
VH: B5 VH with Q43K, A72R, A79V, T113L
VL: B5 VL with Q92S, W96R, L104V

MAC (µg/Ml); inhibition of MAC formation (human properdin [2]): 25 µg/mL
Properdin (µg/mL); inhibition of properdin deposition (human properdin [2]): 30 µg/mL
Binding Affinity (human properdin [4]): 297 pM
IC50 (read off the curve): C3b deposition (AP activation on LPS, normal human serum) (human properdin [5]): ~0.8 µg/mL
IC50 (read off the curve): properdin deposition (AP activation on LPS, 10% normal human serum) (human properdin [13]): ~1 µg/mL
EC50 (read off the curve) (human properdin [6]): ~0.3 nM
B19: NMT20 (antibody, V domains shown)
VH: B5 VH
VL: B5 VL with Q92S, W96Y

IC50 (read off the curve): C3b deposition (sheet title: LPS C3b 10% NHS) (human properdin [7]): ~0.5 µg/mL
EC50 (read off the curve) (human properdin [8]): ~0.4 nM
C3b (µg/mL); inhibition of AP mediated C3b formation and deposition (human properdin [9]): 1 µg/mL
MAC (µg/mL); inhibition of MAC formation (human properdin [9]): 3 µg/mL
Affinity (human properdin [10]): 425 pM
B20: NMT28-101 (antibody, V domains shown)
VH: B5 VH with T113L
VL: B5 VL with L104V

Binding Affinity (human properdin [4]): 335 pM
IC50 (read off the curve): properdin deposition (AP activation on LPS, 10% normal human serum) (human properdin [13]): ~9 µg/mL
EC50 (read off the curve) (human properdin [6]): 0.3 to 0.4 nM
B21: NMT22 (antibody, V domains shown)
VH: B5 VH with P60S, D61A, E62Q, R63K, D66G, M70L, A79V, V114L
VL: B5 VL with Q92S, W96Y

IC50 (read off the curve): C3b deposition (sheet title: LPS C3b 10% NHS) (human properdin [7]): ~0.5 µg/mL
EC50 (read off the curve) (human properdin [8]): 0.3 to 0.4 nM
C3b (µg/mL); inhibition of AP mediated C3b formation and deposition (human properdin [9]): 1 µg/mL
MAC (µg/mL); inhibition of MAC formation (human properdin [9]): 3 µg/mL
Affinity (human properdin [10]): 318 pM
B22: NMT28-100 (antibody, V domains shown)
VH: B5 VH with T113L
VL: B5 VL with L104V
